# In the supplement of paper PMC7125110:
# ± gives the standard error. Variants at the floor of the assay were thinned out.
# B1: glmS ribozyme (parent)
# chain: AUAAAAGCGCCAGAACUACAGAAAUGUAGUUGACGAGGAGGAGGUUUAUCGAAUUUUCGGCGGAUGCCUCCAAA
# Variants of: B1
# Assay: self-cleavage kobs at 640 uM GlcN6P; higher = faster cleavage; RNA array
# Details: with glucosamine-6-phosphate
# Outline: (§1)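 Tiles of sequenced MiSeq chips were imaged over ~14 h at 37 °C. On them, barcoded ribozyme variants had been transcribed in situ by E. coli RNA polymerase and were tracked via a hybridised Cy3 probe while glucosamine-6-phosphate (40 μM to 10 mM) in HEPES/KCl/Mg(OAc)2 buffer flowed in. Per-tile medians, normalised to baseline and to non-cleaving reference variants, were fit to one- or two-exponential decays for kobs, and weighted Michaelis–Menten fits gave kcat and KM.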
row,Variant,self-cleavage kobs at 640 uM GlcN6P
1,A6U U54C C68G U69G,0.00033 ± 9.7e-05 s⁻¹
2,A6U U45A C50G U65G U69G,< 1e-05 s⁻¹
3,G7U A39G U47C G59C,< 1e-05 s⁻¹
4,G7U G9U U31A G37A A52C C67U U69C,< 1e-05 s⁻¹
5,A6U U31G C67G,< 1e-05 s⁻¹
6,G7U C8A U30G G44C,< 1e-05 s⁻¹
7,C8A G29C A36C G63A,< 1e-05 s⁻¹
8,A6G G40A C67U,< 1e-05 s⁻¹
9,A6U U56C C68G,< 1e-05 s⁻¹
10,A6U A12G G59C C67A,< 1e-05 s⁻¹
11,G7U G29U A48C,< 1e-05 s⁻¹
12,A6U C10U G35C A48U G63A,< 1e-05 s⁻¹
13,A6G G63C C67A,< 1e-05 s⁻¹
14,G7U G35U G38C,< 1e-05 s⁻¹
15,G7A C11G G40U,< 1e-05 s⁻¹
16,C8G C10U A48U,< 1e-05 s⁻¹
17,G7U G9A G40C,< 1e-05 s⁻¹
18,A6U A33C A39U C71U,< 1e-05 s⁻¹
19,A6U G37A U55G C71G,< 1e-05 s⁻¹
20,A6G G43A C68A,< 1e-05 s⁻¹
21,C8G A36G A39U G43U,< 1e-05 s⁻¹
22,C8A U30C G51U,< 1e-05 s⁻¹
23,C8A G35U C70G,0.000526 ± 0.0002 s⁻¹
24,C8A G13U C16A A33U U65G C71A,< 1e-05 s⁻¹

row,Variant,self-cleavage kobs at 640 uM GlcN6P
1,A6G U30G G43C G60U C71G,< 1e-05 s⁻¹
2,A6U G44U U49G,< 1e-05 s⁻¹
3,G7U U49G G51C A64C G66C,< 1e-05 s⁻¹
4,G7U G41C C58A,< 1e-05 s⁻¹
5,C8G A14C G29C C34A C67U,< 1e-05 s⁻¹
6,C8A U55G G63U,< 1e-05 s⁻¹
7,C8A A12C G13A,< 1e-05 s⁻¹
8,G7A G38C C58A,< 1e-05 s⁻¹
9,G7C C11U G59U C61U,< 1e-05 s⁻¹
10,G7U C50U U65A U69C C71U,6.46e-05 ± 2.1e-05 s⁻¹
11,C8A C11A G37U G41C A53C G63C,< 1e-05 s⁻¹
12,G7U G9A U31C G35A A52U,< 1e-05 s⁻¹
13,G7U G40A G59U,< 1e-05 s⁻¹
14,A6U A39C G60A,< 1e-05 s⁻¹
15,G7U U47G A53U,< 1e-05 s⁻¹
16,A6G U31A A36G A48U,< 1e-05 s⁻¹
17,G7U A12G A48U G63U,< 1e-05 s⁻¹
18,G7U U30G G63U,< 1e-05 s⁻¹
19,C8A G9A A15G A48C U57A G60A,< 1e-05 s⁻¹
20,G7A A15G U30C A48G U57A,< 1e-05 s⁻¹
21,A6U A36C G38U U56C C67G C68G,0.000412 ± 0.0001 s⁻¹
22,A6G U47G C61A A64U,< 1e-05 s⁻¹
23,G7C U69A C70U,< 1e-05 s⁻¹
24,A6G G37U U47G C50G C58G C67A,7e-05 ± 2.9e-05 s⁻¹

row,Variant,self-cleavage kobs at 640 uM GlcN6P
1,A6U G40C C61U G62C,< 1e-05 s⁻¹
2,G7C C8G C10U C70G,0.000355 ± 0.0001 s⁻¹
3,G7A G40U C58U,< 1e-05 s⁻¹
4,G7C G38C A48C,< 1e-05 s⁻¹
5,G7C A48G U54G,< 1e-05 s⁻¹
6,A6U G32C C67G,< 1e-05 s⁻¹
7,G7U G32C G38C A42U C50U,< 1e-05 s⁻¹
8,A6U A15G C19A A33C C68G,< 1e-05 s⁻¹
9,A6U A15C G44U,< 1e-05 s⁻¹
10,G7A U31G G41U C68U,< 1e-05 s⁻¹
11,G7A C8A U65C,< 1e-05 s⁻¹
12,G7A G37A G60U A64U,< 1e-05 s⁻¹
13,A6U C34G U47G C67U C68A,0.000407 ± 0.00013 s⁻¹
14,C8A U55G A64U,< 1e-05 s⁻¹
15,C8A G13A C61U G62C C70A,< 1e-05 s⁻¹
16,G7C G9C A36G G51C,< 1e-05 s⁻¹
17,G7C A42U,< 1e-05 s⁻¹
18,G7U A12U G40U U55C C71A,< 1e-05 s⁻¹
19,G7C C16U G32C G43A C50U,< 1e-05 s⁻¹
20,A6U C10U G32C,< 1e-05 s⁻¹
21,G7C C10A G13A G37A U45A,< 1e-05 s⁻¹
22,A6U G37A U54A,< 1e-05 s⁻¹
23,C8A G13U G43A G44U G63U,< 1e-05 s⁻¹

# Variants of: B1
# Assay: self-cleavage kobs at 2500 uM GlcN6P; higher = faster cleavage; RNA array
# Details: with glucosamine-6-phosphate
# Outline: as §1
row,Variant,self-cleavage kobs at 2500 uM GlcN6P
1,A6G G40A C67U,< 1e-05 s⁻¹
2,A6U U56C C68G,< 1e-05 s⁻¹
3,G7U G29U A48C,< 1e-05 s⁻¹
4,G7U G35U G38C,< 1e-05 s⁻¹
5,C8G C10U A48U,< 1e-05 s⁻¹
6,G7U G9A G40C,< 1e-05 s⁻¹
7,C8G A36G A39U G43U,< 1e-05 s⁻¹
8,C8A G13U C16A A33U U65G C71A,< 1e-05 s⁻¹
9,G7U U49G G51C A64C G66C,< 1e-05 s⁻¹
10,G7U G41C C58A,< 1e-05 s⁻¹
11,G7A G38C C58A,< 1e-05 s⁻¹
12,C8A C11A G37U G41C A53C G63C,< 1e-05 s⁻¹
13,G7U U47G A53U,< 1e-05 s⁻¹
14,G7A A15G U30C A48G U57A,< 1e-05 s⁻¹
15,A6U A36C G38U U56C C67G C68G,0.000145 ± 4.4e-05 s⁻¹
16,G7A G40U C58U,< 1e-05 s⁻¹
17,G7C G38C A48C,< 1e-05 s⁻¹
18,A6U G32C C67G,< 1e-05 s⁻¹
19,A6U A15G C19A A33C C68G,< 1e-05 s⁻¹
20,A6U A15C G44U,< 1e-05 s⁻¹
21,G7A C8A U65C,< 1e-05 s⁻¹
22,A6U C34G U47G C67U C68A,8.02e-05 ± 2.6e-05 s⁻¹
23,C8A U55G A64U,< 1e-05 s⁻¹
24,C8A G13A C61U G62C C70A,< 1e-05 s⁻¹
25,G7U A12U G40U U55C C71A,< 1e-05 s⁻¹
26,G7C C10A G13A G37A U45A,< 1e-05 s⁻¹

# Variants of: B1
# Assay: self-cleavage kobs at 10000 uM GlcN6P; higher = faster cleavage; RNA array
# Details: with glucosamine-6-phosphate
# Outline: as §1
row,Variant,self-cleavage kobs at 10000 uM GlcN6P
1,G7U G29U A48C,< 1e-05 s⁻¹
2,G7U G35U G38C,< 1e-05 s⁻¹
3,A6U G37A U55G C71G,< 1e-05 s⁻¹
4,C8A G35U C70G,7.27e-05 ± 2.4e-05 s⁻¹
